The target of assay [1] is T1, His-tagged human CD38 (ACRO Biosystems cat #CD8-H5224) (human, UniProt P28907 43-300).
T1 construct: bought recombinant protein with His tag
The assay can be described thus: ELISA, coated His-CD38.

Assay [2] deals with T2, His-tagged cynomolgus monkey CD38 (ACRO Biosystems cat #CD8-05223) (cynomolgus monkey, UniProt Q5VAN0 43-301).
T2 construct: bought recombinant protein with His tag
The assay can be described thus: ELISA, coated His-CD38.

Assay [3] has as its target T3, His-tagged mouse CD38 (ACRO Biosystems #CD8-M5223) (mouse, UniProt P56528 45-304).
T3 construct: bought recombinant protein with His tag; also called Murine
T3 sequence (looked up): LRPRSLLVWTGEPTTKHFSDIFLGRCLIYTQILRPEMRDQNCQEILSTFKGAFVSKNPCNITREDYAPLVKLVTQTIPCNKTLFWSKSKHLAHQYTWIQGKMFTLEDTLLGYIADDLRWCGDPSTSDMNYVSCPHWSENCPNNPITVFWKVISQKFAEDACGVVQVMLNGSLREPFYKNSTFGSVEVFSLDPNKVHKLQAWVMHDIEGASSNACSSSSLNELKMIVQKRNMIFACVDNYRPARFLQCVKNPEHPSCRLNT
The assay can be described thus: ELISA, coated His-CD38. Background: In an ELISA, binding on a coated surface is turned into a signal by an enzyme label.

For assay [4], the target named is T4, human CD38 on transiently transfected Expi293 cells (Origene #SC321273) (human, UniProt P28907 1-300).
T4 construct: whole, on cells; also called Human (FACs)
The assay can be described thus: flow cytometry, transfected Expi293 cells.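 Also: antibody binding to Expi293 cells transiently expressing human or murine CD38, antibodies applied at 10 ug/ml for 60 min on ice, read by flow cytometry as percent gated cells.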

For assay [5], the target named is T5, murine CD38 on transiently transfected Expi293 cells (Origene MC208001) (murine, UniProt P56528 1-304).
T5 construct: whole, on cells; also called Murine (FACs)
T5 sequence (looked up): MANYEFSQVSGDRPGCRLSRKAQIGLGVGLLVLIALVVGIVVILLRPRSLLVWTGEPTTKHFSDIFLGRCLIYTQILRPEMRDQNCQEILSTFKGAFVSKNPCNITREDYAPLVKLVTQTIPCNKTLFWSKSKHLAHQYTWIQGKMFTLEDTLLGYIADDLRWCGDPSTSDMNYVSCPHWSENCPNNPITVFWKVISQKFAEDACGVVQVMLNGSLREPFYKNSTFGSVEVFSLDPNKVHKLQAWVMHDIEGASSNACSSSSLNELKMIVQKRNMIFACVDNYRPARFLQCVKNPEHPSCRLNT
In words: flow cytometry, transfected Expi293 cells.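 Also: antibody binding to Expi293 cells transiently expressing human or murine CD38, antibodies applied at 10 ug/ml for 60 min on ice, read by flow cytometry as percent gated cells.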 A general note: Flow cytometry measures light scatter and fluorescence of single cells or particles in a stream.

Assay [6] concerns the target T1, His-tagged human CD38 (ACRO Biosystems …). The assay can be described thus: SPR, captured scFv-Fc, His-CD38 analyte.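 Also: SPR on a Carterra LSA, scFv-Fc captured by anti-human Fc on HC30M chip, His-tagged CD38 (human, mouse, cynomolgus) flowed as analyte in eight 1:2 steps from 400 nM.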 A general note: SPR reads the build-up and loss of mass on a sensor chip optically.
Assay [7] addresses T2, His-tagged cynomolgus monkey CD38 (ACRO …). The assay can be described thus: SPR, captured scFv-Fc, His-CD38 analyte.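 Also: SPR on a Carterra LSA, scFv-Fc captured by anti-human Fc on HC30M chip, His-tagged CD38 (human, mouse, cynomolgus) flowed as analyte in eight 1:2 steps from 400 nM.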
For assay [8], the target named is T3, His-tagged mouse CD38 (ACRO Biosystems …). In words: SPR, captured scFv-Fc, His-CD38 analyte.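 Also: SPR on a Carterra LSA, scFv-Fc captured by anti-human Fc on HC30M chip, His-tagged CD38 (human, mouse, cynomolgus) flowed as analyte in eight 1:2 steps from 400 nM.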
The target in assay [9] is T6, His-tagged human CD38 (ACRO Biosystems CD8-H5224) (human, UniProt P28907 43-300).
T6 construct: bought protein; used for ELISA coating and as SPR analyte; not shown: His tag
The assay can be described thus: SPR (second run), His-tagged CD38.

Assay [10] deals with T7, His-tagged cynomolgus monkey CD38 (ACRO Biosystems, CD8-05223 [sic]) (cynomolgus monkey, UniProt Q5VAN0 43-301).
T7 construct: bought protein; used for ELISA coating and as SPR analyte; not shown: His tag
The assay can be described thus: SPR (second run), His-tagged CD38.

B1: 40769p1.1.A4 (scFv, V domains shown)
VH: EVQLLESGGGLVQPGGSLRLSCTASGITFSRFNMFWVRQAPGKGLEFVASIRDDGSWTYYADSVKGRFTISRDNSKNTLYLQMNSLRAEDTAVYYCAKDYNSKDFIYHYVMDVWGQGTTVTVSS
VL: QSVLTQPPSASGTPGQRVTISCSGRNSNIGNNVVNWYQQLPGTAPKLLIYKDDQRPSGVPDRFSGSKSGTSASLAISGLQSEDEADYYCSTWDDSLNGWVFGGGTKLTVL
notes: tested as scFv-Fc supernatant
In general, Kd refers to a measure of binding affinity in units of concentration. For B1, the “ELISA 1 ug/ml” value in assay [1] amounted to 1.67; in assay [2], 1.78; in assay [3], 0.049. The entries for the “FACs 10 ug/ml (percent gated)” value in [4] and in assay [5] were 69.9% and 3.09%, respectively. Besides, the figures for the Kd in assay [6], in assay [7] and in assay [8] were 54400 nM, 0.106 nM and 675000 nM, respectively.

B2: 40769p1.1.G12 (scFv, V domains shown)
VH: EVQLLESGGGLVQPGGSLRLSCAASGFTFDDYVMSWVRQAPGKGLEWVSEISESDGSNKYYADSVKGRFIISRDNSKNTLYLQMNSLRAEDTAVYYCARLEPEKYYGMDVWGQGTTVTVSS
VL: QSVLTQPPSASGTPGQRVTISCSGSNSNIGNNLVSWYQQLPGTAPKLLIYRHDHRPSGVPDRFSGSKSGTSASLAISGLQSEDEADYYCATWDDSLNGRAFGGGTKLTVL
On to B2, for which the Kd in [9] amounted to 2.81 nM; in assay [10], 15.3 nM.

B3: 40617p1.1.F1 (scFv, V domains shown)
VH: KVQLLESGGGLVQPGGSLRLSCAASGFTFSSYSMTWVRQAPGKGLEWVSRIYNGGSTYYADSVKGRFTISRDNSKNTLYLQMNSLRAEDTAVYYCARDTYAIDVWGQGTTVTVSS
VL: EIVLTQSPATLSVSPGERATLSCRASQGIAGNLAWYQQKPGQAPRLLIYAASNRATGIPARFSGSGSGTDFTLTISSLQSEDFAVYYCQHYYDWPPYSFGGGTKVEIK
As for B3, the Kd stood at 119 nM in [9] and 786 nM in assay [10].

B4: 40769p1.2.B10 (scFv, V domains shown)
VH: EVQLLESGGGLVQPGGSLRLSCPASGFDFSSYWMTWVRQAPGKGLEWVSTITDSGGRAWYADSVRGRFTISRDNSKNTLYLQMNSLRAEDTAVYYCARDTPKTYYYYAMDVWGQGTTVTV
VL: QSALTQPPSASGTPGQRVTISCSGSSSNIQYSYVSWYQQLPGTAPKLLIYNNVQRPSGVPDRFSGSKSGTSASLAISGLQSEDEADYYCATWDESLLGLWVFGGGTKLTVL
notes: tested as scFv-Fc supernatant
Turning to B4, the “ELISA 1 ug/ml” value in [1] is 1.7; in assay [2] it was 1.68; in assay [3] it was 1.14. Further, the “FACs 10 ug/ml (percent gated)” value in assay [4] was determined as 86.3%; in [5], 4.81%. For the same molecule, the values for the Kd in assay [6], in assay [7] and in assay [8] were 1.43 nM, 18 nM and 56300 nM, respectively.

B5: 40769p1.1.E2 (scFv, V domains shown)
VH: EVLLLESGGGLVQPGGSLRLSCAASGFTFSDYWMSWVRQAPGKGLEWVSTISISAGIIYYADSVKGRFTISRDNSKNTLYLQMNSLRAEDTAVYYCAKDNWNDYYGMDVWGQGTTVTVSS
VL: QSVLTQPPSASGTPGQRVTMSCSGNNQNIRDNYVYWYQQVPGTAPKLLIYKDDQRPSGVPDRFSGSKSGTSASLAISGLQSEDEADYYCATWDGSLKARVFGGGTKLTVL
In the case of B5, the results for the Kd in assay [9] and in assay [10] were 6.99 nM and 8.31 nM, respectively.

B6: 40769p1.1.G10 (scFv, V domains shown)
VH: EVQLLESGGGLVQPGGSLRLSCAASGFTFSDYWMNWVRQAPGKGLEWVSTISSGGSMIYHADSVKGRFTISRDNSKNTLYLQMNSLRPEDTAVYYCAKDNWNDYYGMDVWGQGTTVTVSS
VL: QSVLTQPPSASGTPGQRVNISCSGSSSNIRYNYVYWYQQVPGTAPKLLIYKDDQRPSGVPDRFSGSESGTSASLAISGLQSEDEADYYCATWDGSLNARVFGGGTKLTVL
As for B6, the Kd came out at 1.71 nM in assay [9] and 72.1 nM in assay [10].

B7: 40769p1.1.H1 (scFv, V domains shown)
VH: EVQLLESGGGLVQPGGSLRLSCAASGFTFSDYWMNWVRQAPGKGLEWVSTISSGGSMIYHADSVKGRFTISRDNSKNTLYLQMNSLRPEDTAVYYCAKDNWNDYYGMDVWGQGTTVTVSS
VL: QSVLTQPPSASGTPGQRVNISCSGSSSNIRYNYVYWYQQVPGTAPKLLIYKDDQRPSGVPDRFSGSKSGTSASLAISELQSEDEADYYCATWDGSLNARVFGGGTKLTVL
As for B7, the dissociation constant (Kd) in [9] came to 58.5 nM; in assay [10], 59.9 nM.

B8: 40769p1.1.G5 (scFv, V domains shown)
VH: EVQLLESGGGFVQPGGSLRLSCAASGFNFNNAWMNWVRQAPGKGLEWVGIINGDGTNTYYADSVKGRFTISRDNSKNTLYLQMSSLRAEDTAIYYCARDNKLNDYYYAMDVWGQGTTVTV
VL: QSVLTQPSSASGTPGQRVTISCSGGSSNIHANYVYWYQQLPGTAPKLLIYRNSQRPSGVPDRFSGSKSGTSASLAISGLQSEDEADYYCGTWDNILNVWVFGGGTKLTVL
For B8, the values for the Kd in [9] and in [10] were 7.56 nM and 28.1 nM, respectively.

B9: 40769p1.2.E3 (scFv, V domains shown)
VH: EVQLLESGGDLVQPGGSLRLSCGASGFTFSDHYMSWVRQAPGKGLEWVADISARGSNTWYADSVKGRFTISRDNSENTLYLQMNSLRAEDTAVYYCAKNWNYNYGMDVWGQGTTVTVSS
VL: QSVLTQAPSASGTPGQRVTISCSGSSIQNNYVSWYQQLPGTAPKLLIYRNFERPSGVPDRFSASKSGTSASLAISGLQSEDEADYYCASWDDSLNWVFGGGTKLTVL
Turning to B9, the Kd in assay [9] is 6.74 nM; in [10], 4.9 nM.

B10: 40769p1.2.B4 (scFv, V domains shown)
VH: EVQLLESGGDLVQPGGSLRLSCGASGFTFSDHYMSWVRQAPGKGLEWVADISARGSNTWYADSVKGRFTISRDNSENTLYLQMNSLRAEDTAVYYCAKNWNYNYGMDVWGHGTTVTVSS
VL: QSVLTQAPSASGTPGQRVTISCSGSSIQNNYVSWYQQLPGTAPKLLIYRNFERPSGVPDRFSASKSGTSASLAISGLQSEDEADYYCASWDDSLNWVFGGGTKLTVL
Take B10: the Kd in assay [9] was 8.02 nM; in assay [10] it was 7.84 nM.

B11: 40769p1.2.F9 (scFv, V domains shown)
VH: EVQLLESGGDLVQPGGSLRLSCGASGFTFSDHYMSWVRQAPGKGLEWVADISARGSNTWYADSVKGRFTISRDNSENTLYLQMNSLRAEDTAVYYCAKNWNYNYGMDVWGQGTTVTVSS
VL: QSVLTQAPSASGTPGQRVTISCSGSSIQNNYVSWYQQLPGTAPKLLIYRNFERPSGVPDRFSASKSGTSASLAISGLQSGDEADYYCASWDDSLNWVFGGGTKLTVL
Take B11: the Kd is 8.85 nM in [9] and 8.27 nM in [10].

B12: 40769p1.1.A2 (scFv, V domains shown)
VH: EVQLLESGGGLVQPGGSLRLSCAASGFLFDDYGMSWVRQAPGKGLEWVSAISYKGGSTYYADSVKGRFTISRDNSKNTLYLQMSSLRAEDTAVYYCAKDHKWNYYGMDVWGQGTTVTVSS
VL: QSVLTQPPSASGTPGQRVTISCSGSTSNIGNDNYVSWYQQLPGTAPRLLIYKDDQRPSGVPDRFSGSKSGTSASLAISGLQSEDEADYYCGTWDDRLNAWVFGGGTKLTVL
Take B12: the figures for the Kd in assay [9] and in [10] were 0.82 nM and 0.72 nM, respectively.

B13: 40769p1.1.B8 (scFv, V domains shown)
VH: EVQLLESGGGLVQPGGSLRLSCAASGFTFEDYAMSWVRQAPGKGLEWVSVISSKGGSTSNADSVKGRFTISRDNSKNTLYLQMNSLRAEDTAVYYCAKGMERQYYSYNAMDVWGQGTTVTVSS
VL: QSVLTQPPSASGTPGQRVTISCSGSNSNIDVDYVYWYQQLPGTAPRLLIYKDDQRPSGVPDRFSGSKSGTSASLAISGLQSEDEADYYCATWDDNLNSWLFGGGTKLTVL
In the case of B13, the Kd in assay [9] came to 0.25 nM; in assay [10], 3.29 nM.

For the origin of these results see patent publication US20220306762A1 (CRYSTAL BIOSCIENCE, published 2022).
